Measurements reported in patent publication US20230167182A1 (BIOSION, published 2023).
Like-named read-outs stand apart in the source and are kept apart here.

T1: recombinant human IL6R-his (human, UniProt P08887 20-365)
T1 construct: In house made; the entry includes the C-terminal His tag; also called human IL6R-his protein
T1 sequence: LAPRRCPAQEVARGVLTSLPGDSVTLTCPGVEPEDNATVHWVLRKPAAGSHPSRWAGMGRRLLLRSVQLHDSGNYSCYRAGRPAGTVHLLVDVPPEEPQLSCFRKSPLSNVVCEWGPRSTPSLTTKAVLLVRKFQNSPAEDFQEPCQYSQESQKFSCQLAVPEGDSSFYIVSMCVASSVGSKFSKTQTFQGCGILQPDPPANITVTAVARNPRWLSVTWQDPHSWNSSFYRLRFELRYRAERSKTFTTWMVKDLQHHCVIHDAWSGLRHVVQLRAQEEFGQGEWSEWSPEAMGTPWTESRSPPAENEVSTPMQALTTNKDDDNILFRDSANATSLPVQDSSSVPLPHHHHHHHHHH


Tests used:
[1] = target: T1, recombinant human IL6R-his; experiment: SPR Biacore; antibody captured by anti-human IgG on CM5, human IL6R-his at 100 nM
Protocol: (§1) Un-reacted moieties on the biosensor surface were blocked with ethanolamine. […] Then, serially diluted recombinant human IL6R-his (in house made, amino acid sequence set forth in SEQ ID NO: 44) or macaca IL6R-his protein (in house made, amino acid sequence set forth in SEQ ID NO: 45), starting at 100 nM with a 2-fold serial dilution in HBS-EP⁺ buffer (provided by Biacore), was flowed onto the chip at a flow rate of 30 μL/min. The antigen-antibody association kinetics was followed for 2 minutes and the dissociation kinetics was followed for 10 minutes. The association and dissociation curves were fit to a 1:1 Langmuir binding model using BIAcore evaluation software.
The recombinant human IL6R-his (amino acid sequence set forth in SEQ ID NO: 44) at the concentration of 100 nM instead of serially diluted recombinant human IL6R-his, was flowed onto the chip at a flow rate of 30 μL/min.

human IL6R-Fc protein [2] = target: T2, human IL6R-Fc protein (human, biotin-labeled in the ELISAs (sites not given)); experiment: capture ELISA: antibody captured on anti-IgG F(ab')2 coated plate, then biotin-labeled human IL6R-Fc, streptavidin-HRP
T2 construct: In house made; also called biotin-labeled human IL6R-Fc protein
Protocol: (§2) For the capture ELISA, 96-well micro plates were coated with 2 μg/ml AffiniPure Goat Anti-Mouse IgG, F(ab′)₂ fragment specific (Jackson ImmunoResearch Laboratories, Inc., Cat #115-005-072) in PBS, 100 μl/well, and incubated for 2 hours at 37° C. Plates were washed once with wash buffer (PBS+0.05% v/v Tween-20, PBST) and then blocked with 200 μl/well blocking buffer (5% w/v non-fatty milk in PBST) overnight at 4° C. […] Plates containing captured anti-IL6R antibodies were incubated with biotin-labeled human IL6R-Fc protein (prepared in house, SEQ ID NO: 43, 39.5 ng/ml in 2.5% w/v non-fatty milk in PBST, 100 μl/well) for 40 minutes at 37° C., washed 4 times, and incubated with streptavidin conjugated HRP (1:10000 dilution in PBST, Jackson ImmunoResearch Laboratories, Inc., Cat #016-030-084, 100 μl/well) for 40 minutes at 37° C. After a final wash, plates were incubated with 100 μl/well ELISA substrate TMB (InnoReagents, Cat #TMB-S-002). The reaction was stopped 3-10 minutes later at room temperature with 50 μl/well 1M H₂SO₄, and the absorbance of each well was read on a microplate reader using dual wavelength mode at 450 nm for TMB and 630 nm as the reference wavelength. Then the OD (450-630) values were plotted against antibody concentration. Data was analyzed using Graphpad Prism software and EC₅₀ values were reported.
(§3) For the capture ELISA, AffiniPure Goat Anti-Human IgG, F(ab′)₂ fragment specific (Jackson Immuno Research, Cat #109-005-097) was used instead of AffiniPure Goat Anti-Mouse IgG, F(ab′)₂ fragment specific, 100 μl/well.

human IL6R-Fc protein [3] = target: T2, human IL6R-Fc protein; experiment: ligand blocking ELISA: antibody pre-incubated with biotin-labeled human IL6R-Fc, added to plate-coated human IL6 (blocked ligand: human IL6)
human IL6R-Fc protein [4] = target: T2, human IL6R-Fc protein; experiment: benchmark blocking ELISA: antibody pre-incubated with biotin-labeled human IL6R-Fc, added to plate-coated Tocilizumab (competitor: Tocilizumab)
[5] = target: T1, recombinant human IL6R-his; experiment: SPR Biacore; antibody from diluted cell supernatant captured by anti-human IgG on CM5, human IL6R in flow
Protocol: as §1
Cell supernatants containing humanized antibodies were harvested after six days in shaking flasks and directly subjected to BIAcore test following the protocol described above with modifications.

human IL6R-Fc protein [6] = target: T2, human IL6R-Fc protein; experiment: capture ELISA: antibody captured on anti-IgG F(ab')2 coated plate, then biotin-labeled human IL6R-Fc, streptavidin-HRP; remark: listed apart in the source
Protocol: as §2, §3
Target sequence in this assay (chain, as listed by the source limits assumed): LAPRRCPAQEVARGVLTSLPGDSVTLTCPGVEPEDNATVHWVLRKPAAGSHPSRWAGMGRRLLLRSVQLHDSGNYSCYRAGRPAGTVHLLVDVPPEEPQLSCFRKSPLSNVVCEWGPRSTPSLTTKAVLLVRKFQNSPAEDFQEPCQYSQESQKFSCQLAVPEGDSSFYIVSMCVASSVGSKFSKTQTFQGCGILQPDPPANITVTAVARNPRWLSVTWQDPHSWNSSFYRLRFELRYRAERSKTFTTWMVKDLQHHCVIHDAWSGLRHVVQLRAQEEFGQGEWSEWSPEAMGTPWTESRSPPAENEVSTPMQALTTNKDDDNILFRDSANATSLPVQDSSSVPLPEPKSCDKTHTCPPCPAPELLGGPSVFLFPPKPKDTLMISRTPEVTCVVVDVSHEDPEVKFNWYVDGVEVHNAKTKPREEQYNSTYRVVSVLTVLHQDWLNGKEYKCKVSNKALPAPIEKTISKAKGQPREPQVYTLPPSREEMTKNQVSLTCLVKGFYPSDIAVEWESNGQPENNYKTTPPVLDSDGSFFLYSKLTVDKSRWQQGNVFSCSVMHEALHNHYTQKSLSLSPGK

human IL6R-Fc protein [7] = target: T2, human IL6R-Fc protein; experiment: ligand blocking ELISA: antibody pre-incubated with biotin-labeled human IL6R-Fc, added to plate-coated human IL6 (blocked ligand: human IL6); remark: listed apart in the source
Target sequence in this assay (chain, as listed by the source limits assumed): as above

human IL6R-Fc protein [8] = target: T2, human IL6R-Fc protein; experiment: benchmark blocking ELISA: antibody pre-incubated with biotin-labeled human IL6R-Fc, added to plate-coated Tocilizumab (competitor: Tocilizumab); remark: listed apart in the source
Target sequence in this assay (chain, as listed by the source limits assumed): as above

Row | Binder | Kd [5] | koff [5] | kon [5] | other results
1 | Chimeric 1H9 (antibody, human IgG1, kappa, V domains shown, Mouse variable regions on human IgG1 / human kappa constant regions; also called chimeric antibody 1H9) VH: QVQLQQPGAELVKPGASVKLSCKASGYTFTSYWMHWVKLRPGQGLEWIGEINPTNGRTNYYEKFKNRATLTADKSSSTAYMQLSSLTFEDSAVYFCAKFHYSRWYFDVWGTGTTVTVSS VL: DIVMTQSQKFMSTSVGDRVSITCKASQNVGTAVVWYQQKPGQSPKLLINPASNRYTGVPDRFTGSGSGTDFTLTISNMQSEDLADYFCQQYSSYPLTFGAGTKLELKR |  |  |  | Kd [1]: 0.915 nM; koff [1]: 0.000194 s⁻¹; EC50 (human IL6R-Fc protein [2]): 0.0897 nM; IC50 (human IL6R-Fc protein [3]): 0.213 nM; IC50 (human IL6R-Fc protein [4]): 0.338 nM
2 | humanized antibody hu1H7-V6 (antibody, human IgG1, kappa, V domains shown, Human IgG1 / kappa) VH: QVQLVQSGAEVKKPGASVKVSCKASGYTFTNYWMHWVRQAPGQGLEWIGEINPTNGRTNYNENFKSKVTLTVDTSTSTVYMELSSLRSEDTAVYYCARLNTHYVFDSWGQGTLVTVSS VL: EIVLTQSPGTLSLSPGERATLSCSVSSSISSNYLHWYQQKPGLSPRLLISRTSTLASGIPARFSGSGSGTEYTLTISRMQSEDFAVYYCQQGSGIPFTFGQGTKLEIKR | 0.584 nM | 0.000195 s⁻¹ | 334000 M⁻¹ s⁻¹ | 
3 | humanized antibody hu1H7-V3 (antibody, human IgG1, kappa, V domains shown, Human IgG1 / kappa) VH: QVQLVQSGAEVKKPGASVKVSCKASGYTFTNYWMHWVRQAPGQGLEWIGEINPTNGRTNYNENFKSKVTMTVDTSTSTVYMELSSLRSEDTAVYYCARLNTHYVFDSWGQGTLVTVSS VL: EIVLTQSPGTLSLSPGERATLSCSVSSSISSNYLHWYQQKPGLSPRLLISRTSTLASGIPARFSGSGSGTEYTLTISRMQSEDFAVYYCQQGSGIPFTFGQGTKLEIKR | 0.568 nM | 0.000176 s⁻¹ | 311000 M⁻¹ s⁻¹ | 
4 | humanized antibody hu1H7-V1 (antibody, human IgG1, kappa, V domains shown, Human IgG1 / kappa; also called hu1H7-Vl) VH: QVQLVQSGAEVKKPGASVKVSCKASGYTFTNYWMHWVRQAPGQGLEWIGEINPTNGRTNYNENFKSKVTLTVDKSTSTAYMELSSLRSEDTAVYYCARLNTHYVFDSWGQGTLVTVSS VL: EIVLTQSPGTLSLSPGERATLSCSVSSSISSNYLHWYQQKPGLSPRLLISRTSTLASGIPARFSGSGSGTEYTLTISRMQSEDFAVYYCQQGSGIPFTFGQGTKLEIKR | 0.669 nM | 0.000173 s⁻¹ | 258000 M⁻¹ s⁻¹ | 
5 | humanized antibody hu1H7-V1-2 (antibody, human IgG1, kappa, V domains shown, Human IgG1 / kappa; also called hu1H7-Vl-2) VH: QVQLVQSGAEVKKPGASVKVSCKASGYTFTNYWMHWVKQAPGQGLDWIGEINPTNGRTNYNENFKSKATLTVDKSTSTAYMELSSLRSEDTAVYYCARLNTHYVFDSWGQGTLVTVSS VL: EIVLTQSPGTLSLSPGERATLTCSVSSSISSNYLHWYQQKPGFSPRLLISRTSTLASGIPARFSGSGSGTSYSLTISRMQSEDFAVYYCQQGSGIPFTFGQGTKLEIKR | 0.63 nM | 0.000165 s⁻¹ | 262000 M⁻¹ s⁻¹ | 
6 | humanized antibody hu1H7-V7 (antibody, human IgG1, kappa, V domains shown, Human IgG1 / kappa) VH: QVQLVQSGAEVKKPGASVKVSCKASGYTFTNYWMHWVRQAPGQGLEWIGEINPTNGRTNYNENFKSKVTLTVDKSTSTAYMELSSLRSEDTAVYYCARLNTHYVFDSWGQGTLVTVSS VL: EIVLTQSPGTLSLSPGERATLSCSVSSSISSNYLHWYQQKPGLSPRLLISRTSTLASGIPARFSGSGSGTEFTLTISRLQSEDFAVYYCQQGSGIPFTFGQGTKLEIKR | 0.855 nM | 0.000199 s⁻¹ | 233000 M⁻¹ s⁻¹ | 
7 | humanized antibody hu1H7-V2 (antibody, human IgG1, kappa, V domains shown, Human IgG1 / kappa) VH: QVQLVQSGAEVKKPGASVKVSCKASGYTFTNYWMHWVRQAPGQGLEWIGEINPTNGRTNYNENFKSKVTLTRDTSTSTVYMELSSLRSEDTAVYYCARLNTHYVFDSWGQGTLVTVSS VL: EIVLTQSPGTLSLSPGERATLSCSVSSSISSNYLHWYQQKPGLSPRLLISRTSTLASGIPARFSGSGSGTEYTLTISRMQSEDFAVYYCQQGSGIPFTFGQGTKLEIKR | 0.733 nM | 0.000197 s⁻¹ | 269000 M⁻¹ s⁻¹ | 
8 | Chimeric 1B5 (antibody, human IgG1, kappa, V domains shown, Mouse variable regions on human IgG1 / human kappa constant regions; also called chimeric antibody 1B5) VH: QVQLQQPGAELVKPGASVKLSCKASGYTFTSYWMHWVKQRPGQGLEWIGEINPSNGRTNYNENFKSKATLTVDKSSSTAYMQLSSLTSEDSAVYYCARLNTHYVFDYWGQGTTLTVSS VL: EIVLTQSPTILAASPGEKITFTCSVSSSISSNYLHWYQQKPGFSPKLLIYRTSNLASGVPARFSGSGSGTSYSLTIGTMEAEDVATYYCQQGSGIPFTFGSGTKLEIKR |  |  |  | Kd [1]: 0.915 nM; koff [1]: 0.000194 s⁻¹; kon [1]: 212000 M⁻¹ s⁻¹; EC50 (human IL6R-Fc protein [6]): 0.101 nM; IC50 (human IL6R-Fc protein [7]): 0.299 nM; IC50 (human IL6R-Fc protein [8]): 0.317 nM

Further lines, with some results ahead:

Row | Kd [5] | koff [5] | kon [5] | Binder | other results
9 | 0.744 nM | 0.000207 s⁻¹ | 279000 M⁻¹ s⁻¹ | humanized antibody hu1H7-V12 (antibody, human IgG1, kappa, V domains shown, Human IgG1 / kappa) VH: QVQLVQSGAEVKKPGASVKVSCKASGYTFTNYWMHWVRQAPGQGLEWIGEINPTNGRTNYNENFKSKVTLTVDTSTSTVYMELSSLRSEDTAVYYCARLNTHYVFDSWGQGTLVTVSS VL: EIVLTQSPGTLSLSPGERATLSCSVSSSISSNYLHWYQQKPGLSPRLLISRTSTLASGIPARFSGSGSGTEFTLTISRLQSEDFAVYYCQQGSGIPFTFGQGTKLEIKR | 
10 | 0.91 nM | 0.000199 s⁻¹ | 218000 M⁻¹ s⁻¹ | humanized antibody hu1H7-V8 (antibody, human IgG1, kappa, V domains shown, Human IgG1 / kappa) VH: QVQLVQSGAEVKKPGASVKVSCKASGYTFTNYWMHWVRQAPGQGLEWIGEINPTNGRTNYNENFKSKVTLTRDTSTSTVYMELSSLRSEDTAVYYCARLNTHYVFDSWGQGTLVTVSS VL: EIVLTQSPGTLSLSPGERATLSCSVSSSISSNYLHWYQQKPGLSPRLLISRTSTLASGIPARFSGSGSGTEFTLTISRLQSEDFAVYYCQQGSGIPFTFGQGTKLEIKR | 
11 | 1.05 nM | 0.000222 s⁻¹ | 212000 M⁻¹ s⁻¹ | humanized antibody hu1H7-V9 (antibody, human IgG1, kappa, V domains shown, Human IgG1 / kappa) VH: QVQLVQSGAEVKKPGASVKVSCKASGYTFTNYWMHWVRQAPGQGLEWIGEINPTNGRTNYNENFKSKVTMTVDTSTSTVYMELSSLRSEDTAVYYCARLNTHYVFDSWGQGTLVTVSS VL: EIVLTQSPGTLSLSPGERATLSCSVSSSISSNYLHWYQQKPGLSPRLLISRTSTLASGIPARFSGSGSGTEFTLTISRLQSEDFAVYYCQQGSGIPFTFGQGTKLEIKR | 
12 | 0.849 nM | 0.000202 s⁻¹ | 238000 M⁻¹ s⁻¹ | humanized antibody hu1H7-V11 (antibody, human IgG1, kappa, V domains shown, Human IgG1 / kappa) VH: QVQLVQSGAEVKKPGASVKVSCKASGYTFTNYWMHWVRQAPGQGLEWIGEINPTNGRTNYNENFKSRVTLTVDTSTSTVYMELSSLRSEDTAVYYCARLNTHYVFDSWGQGTLVTVSS VL: EIVLTQSPGTLSLSPGERATLSCSVSSSISSNYLHWYQQKPGLSPRLLISRTSTLASGIPARFSGSGSGTEFTLTISRLQSEDFAVYYCQQGSGIPFTFGQGTKLEIKR | 
